Among the data in patent EP1722229B1 are Km of PC activation by thrombin on the surface of endothelial cells in the presence of rhsEPCR 2 µM and Ki values, retold here.

By Ki is commonly meant the dissociation constant of the complex between target and ligand, obtained from inhibition or displacement.

The target in assay [1] is protein C (PC) (UniProt P04070). Put plainly: cell-based or functional assay.
Assay [2] has the same target. Put plainly: derived from the shift of the Km of PC activation by thrombin on EA.hy926 endothelial cells with 2 µM rhsEPCR.

Sequence of protein C (PC) (P04070 43-461): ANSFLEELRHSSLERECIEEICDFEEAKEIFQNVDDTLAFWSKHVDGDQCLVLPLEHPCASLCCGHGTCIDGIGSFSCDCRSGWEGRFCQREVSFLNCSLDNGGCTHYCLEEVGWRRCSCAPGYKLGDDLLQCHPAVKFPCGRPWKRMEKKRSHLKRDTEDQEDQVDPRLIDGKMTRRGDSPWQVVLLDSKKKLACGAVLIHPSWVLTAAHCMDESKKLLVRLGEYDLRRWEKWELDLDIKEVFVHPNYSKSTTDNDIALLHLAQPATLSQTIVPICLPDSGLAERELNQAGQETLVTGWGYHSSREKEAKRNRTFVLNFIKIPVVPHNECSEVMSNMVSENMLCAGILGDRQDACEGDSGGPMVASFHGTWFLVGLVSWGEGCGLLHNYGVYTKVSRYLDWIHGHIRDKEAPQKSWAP

Turning to “recombinant human soluble EPCR (rhsEPCR) (receptor)”, the Km of PC activation by thrombin on the surface of endothelial cells in the presence of rhsEPCR 2 µM with protein C (PC) [1] was determined as 1 µM. In addition, in the assay with protein C (PC) [2], the Ki worked out at 70 nM.
